To fix the notation:
B1: MKK6 D-site peptide / p38-alpha (MAPK14) L195A, full length (parent complex)
chain 1: SQSKGKKRNPGLKIPKEAFEQP
chain 2: MSQERPTFYRQELNKTVWEVPERYQNLSPVGSGAYGSVCAAFDTKTGHRVAVKKLSRPFQSIIHAKRTYRELRLLKHMKHENVIGLLDVFTPARSLEEFNDVYLVTHLMGADLNNIVKCQKLTDDHVQFLIYQILRGLKYIHSADIIHRDLKPSNLAVNEDCELKILDFGLARHTDDEMTGYVATRWYRAPEIMANWMHYNQTVDIWSVGCIMAELLTGRTLFPGTDHIDQLKLILRLVGTPGAELLKKISSESARNYIQSLAQMPKMNFANVFIGANPLAVDLLEKMLVLDSDKRITAAQALAHAYFAQYHDPDDEPVAEPYDQSFESRDFLIDEWKSLTYDEVISFVPPPLDQEEMES

Consider 75 variants from doi:10.1101/2021.08.20.457142.

Variants of B1 are the subject of this experiment.
On to chain 1 G5A, chain 1 K13A, for which the screen value was -0.263 Z-score of the enrichment rate within one screen of 711 sequences.
On to chain 1 G11A, chain 1 L12A, for which the screen value was -0.887 Z-score of the enrichment rate within one screen of 711 sequences.
For the variant chain 1 P15N, the screen value was 2.75 Z-score of the enrichment rate within one screen of 711 sequences.
To chain 1 P15V belongs 3.1 Z-score of the enrichment rate within one screen of 711 sequences; to chain 1 P15F, 1.25 Z-score of the enrichment rate within one screen of 711 sequences; to chain 1 P15Q, 0.909 Z-score of the enrichment rate within one screen of 711 sequences.
With chain 1 P15L, the screen value is 1.3 Z-score of the enrichment rate within one screen of 711 sequences.
On to chain 1 P15H, for which the screen value is 1.18 Z-score of the enrichment rate within one screen of 711 sequences.
For chain 1 P15A, the screen value is 2.82 Z-score of the enrichment rate within one screen of 711 sequences.
To chain 1 P15D belongs 0.934 Z-score of the enrichment rate within one screen of 711 sequences; to chain 1 P15I, 1.61 Z-score of the enrichment rate within one screen of 711 sequences; to chain 1 K13C, -0.0746 Z-score of the enrichment rate within one screen of 711 sequences.
To chain 1 K13M belongs 0.213 Z-score of the enrichment rate within one screen of 711 sequences; to chain 1 K13E, -0.899 Z-score of the enrichment rate within one screen of 711 sequences; to chain 1 K13Q, -0.188 Z-score of the enrichment rate within one screen of 711 sequences.
As for chain 1 G5A, chain 1 R8A, the screen value is -0.162 Z-score of the enrichment rate within one screen of 711 sequences.
With chain 1 K4A, chain 1 K13A, the screen value was -0.724 Z-score of the enrichment rate within one screen of 711 sequences.
Regarding chain 1 K4A, chain 1 L12A, the screen value is -1.24 Z-score of the enrichment rate within one screen of 711 sequences.
To chain 1 N9A, chain 1 K16A belongs 0.162 Z-score of the enrichment rate within one screen of 711 sequences.
To chain 1 G11A, chain 1 I14A belongs -0.938 Z-score of the enrichment rate within one screen of 711 sequences.
chain 1 K7A, chain 1 N9A: the screen value was 0.105 Z-score of the enrichment rate within one screen of 711 sequences.
As for chain 1 K4A, chain 1 K6A, the screen value is -0.342 Z-score of the enrichment rate within one screen of 711 sequences.
To chain 1 I14A, chain 1 K16A belongs -0.243 Z-score of the enrichment rate within one screen of 711 sequences.
Take chain 1 G5A, chain 1 K6A: the screen value was 1.13 Z-score of the enrichment rate within one screen of 711 sequences.
To chain 1 N9A, chain 1 P15A belongs 1.61 Z-score of the enrichment rate within one screen of 711 sequences.
For the variant chain 1 K7A, chain 1 I14A, the screen value was -1.1 Z-score of the enrichment rate within one screen of 711 sequences.
For chain 1 L12S, the screen value is -1.12 Z-score of the enrichment rate within one screen of 711 sequences.
Consider chain 1 L12I, for which the screen value was -0.212 Z-score of the enrichment rate within one screen of 711 sequences.
To chain 1 L12P belongs -0.143 Z-score of the enrichment rate within one screen of 711 sequences; to chain 1 L12M, 0.044 Z-score of the enrichment rate within one screen of 711 sequences; to chain 1 L12C, -0.618 Z-score of the enrichment rate within one screen of 711 sequences.
To chain 1 L12W belongs -0.0439 Z-score of the enrichment rate within one screen of 711 sequences; to chain 1 L12D, -1.05 Z-score of the enrichment rate within one screen of 711 sequences; to chain 1 G5A, chain 1 G11A, 1.18 Z-score of the enrichment rate within one screen of 711 sequences.
To chain 1 R8A, chain 1 P10A belongs -0.354 Z-score of the enrichment rate within one screen of 711 sequences; to chain 1 K7A, chain 1 P15A, 0.766 Z-score of the enrichment rate within one screen of 711 sequences.
With chain 1 K6A, chain 1 K7A, the screen value is -0.229 Z-score of the enrichment rate within one screen of 711 sequences.
Take chain 1 P10A, chain 1 I14A: the screen value is -0.954 Z-score of the enrichment rate within one screen of 711 sequences.
For chain 1 R8Q, the screen value was -0.189 Z-score of the enrichment rate within one screen of 711 sequences.
To chain 1 R8H belongs 0.072 Z-score of the enrichment rate within one screen of 711 sequences; to chain 1 R8K, 1.16 Z-score of the enrichment rate within one screen of 711 sequences; to chain 1 R8D, -1 Z-score of the enrichment rate within one screen of 711 sequences.
chain 1 R8C: the screen value was -0.13 Z-score of the enrichment rate within one screen of 711 sequences.
As to chain 1 R8M, the screen value was -0.224 Z-score of the enrichment rate within one screen of 711 sequences.
With chain 1 R8V, the screen value is -0.0927 Z-score of the enrichment rate within one screen of 711 sequences.
On to chain 1 R8A, for which the screen value is -0.149 Z-score of the enrichment rate within one screen of 711 sequences.
Take chain 1 R8G: the screen value was -0.084 Z-score of the enrichment rate within one screen of 711 sequences.
As for chain 1 R8T, the screen value was 0.227 Z-score of the enrichment rate within one screen of 711 sequences.
To chain 1 P10A, chain 1 G11A belongs 0.0844 Z-score of the enrichment rate within one screen of 711 sequences.
As to chain 1 R8A, chain 1 P15A, the screen value was 0.201 Z-score of the enrichment rate within one screen of 711 sequences.
In the case of chain 1 P15A, chain 1 K16N, the screen value is 0.0482 Z-score of the enrichment rate within one screen of 711 sequences.
To chain 1 P15A, chain 1 K16A belongs 1.54 Z-score of the enrichment rate within one screen of 711 sequences.
For chain 1 K4A, chain 1 G11A, the screen value is 0.565 Z-score of the enrichment rate within one screen of 711 sequences.
Take chain 1 K4A, chain 1 K16A: the screen value was 0.0782 Z-score of the enrichment rate within one screen of 711 sequences.
To chain 1 G11A, chain 1 K13A belongs -0.412 Z-score of the enrichment rate within one screen of 711 sequences.
Turning to chain 1 S3A, chain 1 K6A, the screen value was 0.57 Z-score of the enrichment rate within one screen of 711 sequences.
Consider chain 1 G5V, for which the screen value was 1.75 Z-score of the enrichment rate within one screen of 711 sequences.
chain 1 G5P: the screen value was 1.65 Z-score of the enrichment rate within one screen of 711 sequences.
Turning to chain 1 G5D, the screen value is 0.151 Z-score of the enrichment rate within one screen of 711 sequences.
To chain 1 G5Q belongs 1.53 Z-score of the enrichment rate within one screen of 711 sequences; to chain 1 G5A, 1.57 Z-score of the enrichment rate within one screen of 711 sequences.
On to chain 1 G5I, for which the screen value was 2.27 Z-score of the enrichment rate within one screen of 711 sequences.
Consider chain 1 G5R, for which the screen value was 3.17 Z-score of the enrichment rate within one screen of 711 sequences.
Consider chain 1 G5L, for which the screen value was 4 Z-score of the enrichment rate within one screen of 711 sequences.
To chain 1 G5C belongs 1.42 Z-score of the enrichment rate within one screen of 711 sequences.
For the variant chain 1 K6M, the screen value was 1.22 Z-score of the enrichment rate within one screen of 711 sequences.
For the variant chain 1 K6I, the screen value was 0.848 Z-score of the enrichment rate within one screen of 711 sequences.
With chain 1 K6Y, the screen value was 0.469 Z-score of the enrichment rate within one screen of 711 sequences.
Take chain 1 K6L: the screen value is 1.2 Z-score of the enrichment rate within one screen of 711 sequences.
Regarding chain 1 K6S, the screen value was 0.535 Z-score of the enrichment rate within one screen of 711 sequences.
Take chain 1 K6G: the screen value is 0.521 Z-score of the enrichment rate within one screen of 711 sequences.
Consider chain 1 K6F, for which the screen value is 1.13 Z-score of the enrichment rate within one screen of 711 sequences.
To chain 1 K6C belongs 0.831 Z-score of the enrichment rate within one screen of 711 sequences; to chain 1 K6T, 0.469 Z-score of the enrichment rate within one screen of 711 sequences.
To chain 1 K6H belongs 0.638 Z-score of the enrichment rate within one screen of 711 sequences.
